Results taken from paper doi:10.1101/2024.12.01.626218.

Target: TTF2 1-100 (UniProt Q5NC05)
Assay: isothermal titration calorimetry
Settings: reference: unphosphorylated TRAIP 313-329 peptide; sites T325

## TRAIP 313-329 (from UniProt Q8VIG6) pT325 TRAIP 313-329 peptide
  binding against the reference: gained
